Assay results taken from PMC5663475, “SAV1 promotes Hippo kinase activation through antagonizing the PP2A phosphatase STRIPAK” (eLife, 2017).

B1: Myc-SAV1 SARAH (residues 321–383) wild type [modified: 35S-methionine labelled; 35S-methionine labelled] [human] / GST-MST2 SARAH (residues 430–491) [human] (parent complex)
chain 1: ILKWELFQLADLDTYQGMLKLLFMKELEQIVKMYEAYRQALLTELENRKQRQQWYAQQHGKNF
chain 2: KVPQDGDFDFLKNLSLEELQMRLKALDPMMEREIEELRQRYTAKRQPILDAMDAKKRRQQNF

Variants of: B1
Assay: GST pull-down of in vitro translated 35S-labeled Myc-SAV1 SARAH, quantified; read off a plot

ratio to parent | Variant
~0.9 | chain 1 T14A
~0.01 | chain 1 L41A
~0.2 | chain 1 L42A
~0.04 | chain 1 I30A
~0.36 | chain 1 Y34A
~0.4 | chain 1 Q16A
~0.03 | chain 1 R38A
~0.06 | chain 1 L45A
~0.53 | chain 1 V31A
~0.03 | chain 1 R48A
~0.7 | chain 1 L27A
~0.04 | chain 1 Y37A
~0.02 | chain 1 E26A
